# Laboratory results taken from patent US12679878B2, “CRF2 receptor agonists and their use in therapy” (SANOFI, priority 2020, dated 2026).
# Starred links: 1 amine or outer side, 2 acyl side, 3 side chain; linkers in the order of their positions; H or OH if unused. Non-standard residues stand in square brackets, D forms with d. Groups on a side chain read outwards from the residue. No end group written: not given here. *: point of attachment. C18 diacid = O=C(O)CCCCCCCCCCCCCCCCC(=O)*; γGlu = O=C(O)[C@H](CCC(=O)[*:2])N[*:1]; AEEA = NCCOCCOCC(=O)O; Aib = CC(C)(N)C(=O)O
# Biological target: human corticotropin-releasing factor 2α (CRF2 α receptor) (human), Q13324
# Sequence (Q13324 20-411): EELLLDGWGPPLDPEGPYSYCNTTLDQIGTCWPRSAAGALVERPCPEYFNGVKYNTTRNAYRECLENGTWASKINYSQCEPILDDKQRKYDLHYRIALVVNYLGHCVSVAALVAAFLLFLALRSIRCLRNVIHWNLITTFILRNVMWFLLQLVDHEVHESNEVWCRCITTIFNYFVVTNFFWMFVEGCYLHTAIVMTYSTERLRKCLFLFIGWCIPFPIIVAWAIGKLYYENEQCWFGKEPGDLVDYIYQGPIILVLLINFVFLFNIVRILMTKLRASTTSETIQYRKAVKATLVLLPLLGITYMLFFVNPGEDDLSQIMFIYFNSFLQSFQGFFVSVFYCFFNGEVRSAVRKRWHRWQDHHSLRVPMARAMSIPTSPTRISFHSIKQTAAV
# Assay: cell-based or functional assay
Binder,"EC50 [nM], 0% HSA","EC50 [nM], 0.1% HSA"
FTLSLDVPTKIK([AEEA-AEEA-γGlu-C18 diacid])QILFKQQKQKKERQQAEKNKQLLEQI-NH2 (N-terminus assumed; SMILES CC[C@H](C)[C@H](NC(=O)[C@H](CCC(N)=O)NC(=O)[C@H](CCC(=O)O)NC(=O)[C@H](CC(C)C)NC(=O)[C@H](CC(C)C)NC(=O)[C@H](CCC(N)=O)NC(=O)[C@H](CCCCN)NC(=O)[C@H](CC(N)=O)NC(=O)[C@H](CCCCN)NC(=O)[C@H](CCC(=O)O)NC(=O)[C@H](C)NC(=O)[C@H](CCC(N)=O)NC(=O)[C@H](CCC(N)=O)NC(=O)[C@H](CCCNC(=N)N)NC(=O)[C@H](CCC(=O)O)NC(=O)[C@H](CCCCN)NC(=O)[C@H](CCCCN)NC(=O)[C@H](CCC(N)=O)NC(=O)[C@H](CCCCN)NC(=O)[C@H](CCC(N)=O)NC(=O)[C@H](CCC(N)=O)NC(=O)[C@H](CCCCN)NC(=O)[C@H](Cc1ccccc1)NC(=O)[C@H](CC(C)C)NC(=O)[C@@H](NC(=O)[C@H](CCC(N)=O)NC(=O)[C@H](CCCCNC(=O)COCCOCCNC(=O)COCCOCCNC(=O)CC[C@H](NC(=O)CCCCCCCCCCCCCCCCC(=O)O)C(=O)O)NC(=O)[C@@H](NC(=O)[C@H](CCCCN)NC(=O)[C@@H](NC(=O)[C@@H]1CCCN1C(=O)[C@@H](NC(=O)[C@H](CC(=O)O)NC(=O)[C@H](CC(C)C)NC(=O)[C@H](CO)NC(=O)[C@H](CC(C)C)NC(=O)[C@@H](NC(=O)[C@@H](N)Cc1ccccc1)[C@@H](C)O)C(C)C)[C@@H](C)O)[C@@H](C)CC)[C@@H](C)CC)C(N)=O) [SEQ ID NO: 13],0.98 nM,64.1 nM
IVLSLD[dV]PIKLK([AEEA-AEEA-γGlu-C18 diacid])QILLKQARQK[Aib]QREQAEKNKRILERV-NH2 (N-terminus assumed; SMILES CC[C@H](C)[C@H](N)C(=O)N[C@H](C(=O)N[C@@H](CC(C)C)C(=O)N[C@@H](CO)C(=O)N[C@@H](CC(C)C)C(=O)N[C@@H](CC(=O)O)C(=O)N[C@@H](C(=O)N1CCC[C@H]1C(=O)N[C@H](C(=O)N[C@@H](CCCCN)C(=O)N[C@@H](CC(C)C)C(=O)N[C@@H](CCCCNC(=O)COCCOCCNC(=O)COCCOCCNC(=O)CC[C@H](NC(=O)CCCCCCCCCCCCCCCCC(=O)O)C(=O)O)C(=O)N[C@@H](CCC(N)=O)C(=O)N[C@H](C(=O)N[C@@H](CC(C)C)C(=O)N[C@@H](CC(C)C)C(=O)N[C@@H](CCCCN)C(=O)N[C@@H](CCC(N)=O)C(=O)N[C@@H](C)C(=O)N[C@@H](CCCNC(=N)N)C(=O)N[C@@H](CCC(N)=O)C(=O)N[C@@H](CCCCN)C(=O)NC(C)(C)C(=O)N[C@@H](CCC(N)=O)C(=O)N[C@@H](CCCNC(=N)N)C(=O)N[C@@H](CCC(=O)O)C(=O)N[C@@H](CCC(N)=O)C(=O)N[C@@H](C)C(=O)N[C@@H](CCC(=O)O)C(=O)N[C@@H](CCCCN)C(=O)N[C@@H](CC(N)=O)C(=O)N[C@@H](CCCCN)C(=O)N[C@@H](CCCNC(=N)N)C(=O)N[C@H](C(=O)N[C@@H](CC(C)C)C(=O)N[C@@H](CCC(=O)O)C(=O)N[C@@H](CCCNC(=N)N)C(=O)N[C@H](C(N)=O)C(C)C)[C@@H](C)CC)[C@@H](C)CC)[C@@H](C)CC)C(C)C)C(C)C) [SEQ ID NO: 128],0.64 nM,20.1 nM
IVLSLD[dV]PIKLK([AEEA-AEEA-γGlu-C18 diacid])QILLEQAKQK[Aib]QREQAEKNKRILERV-NH2 (N-terminus assumed; SMILES CC[C@H](C)[C@H](N)C(=O)N[C@H](C(=O)N[C@@H](CC(C)C)C(=O)N[C@@H](CO)C(=O)N[C@@H](CC(C)C)C(=O)N[C@@H](CC(=O)O)C(=O)N[C@@H](C(=O)N1CCC[C@H]1C(=O)N[C@H](C(=O)N[C@@H](CCCCN)C(=O)N[C@@H](CC(C)C)C(=O)N[C@@H](CCCCNC(=O)COCCOCCNC(=O)COCCOCCNC(=O)CC[C@H](NC(=O)CCCCCCCCCCCCCCCCC(=O)O)C(=O)O)C(=O)N[C@@H](CCC(N)=O)C(=O)N[C@H](C(=O)N[C@@H](CC(C)C)C(=O)N[C@@H](CC(C)C)C(=O)N[C@@H](CCC(=O)O)C(=O)N[C@@H](CCC(N)=O)C(=O)N[C@@H](C)C(=O)N[C@@H](CCCCN)C(=O)N[C@@H](CCC(N)=O)C(=O)N[C@@H](CCCCN)C(=O)NC(C)(C)C(=O)N[C@@H](CCC(N)=O)C(=O)N[C@@H](CCCNC(=N)N)C(=O)N[C@@H](CCC(=O)O)C(=O)N[C@@H](CCC(N)=O)C(=O)N[C@@H](C)C(=O)N[C@@H](CCC(=O)O)C(=O)N[C@@H](CCCCN)C(=O)N[C@@H](CC(N)=O)C(=O)N[C@@H](CCCCN)C(=O)N[C@@H](CCCNC(=N)N)C(=O)N[C@H](C(=O)N[C@@H](CC(C)C)C(=O)N[C@@H](CCC(=O)O)C(=O)N[C@@H](CCCNC(=N)N)C(=O)N[C@H](C(N)=O)C(C)C)[C@@H](C)CC)[C@@H](C)CC)[C@@H](C)CC)C(C)C)C(C)C) [SEQ ID NO: 127],0.16 nM,5.14 nM
IVLSLD[dV]PIKLK([AEEA-AEEA-γGlu-C18 diacid])QILLEQAKQK[Aib]QRAQAEKNKRILERV-NH2 (N-terminus assumed; SMILES CC[C@H](C)[C@H](N)C(=O)N[C@H](C(=O)N[C@@H](CC(C)C)C(=O)N[C@@H](CO)C(=O)N[C@@H](CC(C)C)C(=O)N[C@@H](CC(=O)O)C(=O)N[C@@H](C(=O)N1CCC[C@H]1C(=O)N[C@H](C(=O)N[C@@H](CCCCN)C(=O)N[C@@H](CC(C)C)C(=O)N[C@@H](CCCCNC(=O)COCCOCCNC(=O)COCCOCCNC(=O)CC[C@H](NC(=O)CCCCCCCCCCCCCCCCC(=O)O)C(=O)O)C(=O)N[C@@H](CCC(N)=O)C(=O)N[C@H](C(=O)N[C@@H](CC(C)C)C(=O)N[C@@H](CC(C)C)C(=O)N[C@@H](CCC(=O)O)C(=O)N[C@@H](CCC(N)=O)C(=O)N[C@@H](C)C(=O)N[C@@H](CCCCN)C(=O)N[C@@H](CCC(N)=O)C(=O)N[C@@H](CCCCN)C(=O)NC(C)(C)C(=O)N[C@@H](CCC(N)=O)C(=O)N[C@@H](CCCNC(=N)N)C(=O)N[C@@H](C)C(=O)N[C@@H](CCC(N)=O)C(=O)N[C@@H](C)C(=O)N[C@@H](CCC(=O)O)C(=O)N[C@@H](CCCCN)C(=O)N[C@@H](CC(N)=O)C(=O)N[C@@H](CCCCN)C(=O)N[C@@H](CCCNC(=N)N)C(=O)N[C@H](C(=O)N[C@@H](CC(C)C)C(=O)N[C@@H](CCC(=O)O)C(=O)N[C@@H](CCCNC(=N)N)C(=O)N[C@H](C(N)=O)C(C)C)[C@@H](C)CC)[C@@H](C)CC)[C@@H](C)CC)C(C)C)C(C)C) [SEQ ID NO: 126],0.22 nM,5.59 nM

# The next lines start with the values.
"EC50 [nM], 0% HSA","EC50 [nM], 0.1% HSA",Binder
0.05 nM,2.11 nM,IVLSLD[dV]PIKLK([AEEA-AEEA-γGlu-C18 diacid])QILLKQERQK[Aib]QREQAEKNKQILAQV-NH2 (N-terminus assumed; SMILES CC[C@H](C)[C@H](N)C(=O)N[C@H](C(=O)N[C@@H](CC(C)C)C(=O)N[C@@H](CO)C(=O)N[C@@H](CC(C)C)C(=O)N[C@@H](CC(=O)O)C(=O)N[C@@H](C(=O)N1CCC[C@H]1C(=O)N[C@H](C(=O)N[C@@H](CCCCN)C(=O)N[C@@H](CC(C)C)C(=O)N[C@@H](CCCCNC(=O)COCCOCCNC(=O)COCCOCCNC(=O)CC[C@H](NC(=O)CCCCCCCCCCCCCCCCC(=O)O)C(=O)O)C(=O)N[C@@H](CCC(N)=O)C(=O)N[C@H](C(=O)N[C@@H](CC(C)C)C(=O)N[C@@H](CC(C)C)C(=O)N[C@@H](CCCCN)C(=O)N[C@@H](CCC(N)=O)C(=O)N[C@@H](CCC(=O)O)C(=O)N[C@@H](CCCNC(=N)N)C(=O)N[C@@H](CCC(N)=O)C(=O)N[C@@H](CCCCN)C(=O)NC(C)(C)C(=O)N[C@@H](CCC(N)=O)C(=O)N[C@@H](CCCNC(=N)N)C(=O)N[C@@H](CCC(=O)O)C(=O)N[C@@H](CCC(N)=O)C(=O)N[C@@H](C)C(=O)N[C@@H](CCC(=O)O)C(=O)N[C@@H](CCCCN)C(=O)N[C@@H](CC(N)=O)C(=O)N[C@@H](CCCCN)C(=O)N[C@@H](CCC(N)=O)C(=O)N[C@H](C(=O)N[C@@H](CC(C)C)C(=O)N[C@@H](C)C(=O)N[C@@H](CCC(N)=O)C(=O)N[C@H](C(N)=O)C(C)C)[C@@H](C)CC)[C@@H](C)CC)[C@@H](C)CC)C(C)C)C(C)C) [SEQ ID NO: 130]
0.15 nM,3.02 nM,IVLSLD[dV]PIKLK([AEEA-AEEA-γGlu-C18 diacid])QILLEQERQK[Aib]QREQAEKNKQILAQV-NH2 (N-terminus assumed; SMILES CC[C@H](C)[C@H](N)C(=O)N[C@H](C(=O)N[C@@H](CC(C)C)C(=O)N[C@@H](CO)C(=O)N[C@@H](CC(C)C)C(=O)N[C@@H](CC(=O)O)C(=O)N[C@@H](C(=O)N1CCC[C@H]1C(=O)N[C@H](C(=O)N[C@@H](CCCCN)C(=O)N[C@@H](CC(C)C)C(=O)N[C@@H](CCCCNC(=O)COCCOCCNC(=O)COCCOCCNC(=O)CC[C@H](NC(=O)CCCCCCCCCCCCCCCCC(=O)O)C(=O)O)C(=O)N[C@@H](CCC(N)=O)C(=O)N[C@H](C(=O)N[C@@H](CC(C)C)C(=O)N[C@@H](CC(C)C)C(=O)N[C@@H](CCC(=O)O)C(=O)N[C@@H](CCC(N)=O)C(=O)N[C@@H](CCC(=O)O)C(=O)N[C@@H](CCCNC(=N)N)C(=O)N[C@@H](CCC(N)=O)C(=O)N[C@@H](CCCCN)C(=O)NC(C)(C)C(=O)N[C@@H](CCC(N)=O)C(=O)N[C@@H](CCCNC(=N)N)C(=O)N[C@@H](CCC(=O)O)C(=O)N[C@@H](CCC(N)=O)C(=O)N[C@@H](C)C(=O)N[C@@H](CCC(=O)O)C(=O)N[C@@H](CCCCN)C(=O)N[C@@H](CC(N)=O)C(=O)N[C@@H](CCCCN)C(=O)N[C@@H](CCC(N)=O)C(=O)N[C@H](C(=O)N[C@@H](CC(C)C)C(=O)N[C@@H](C)C(=O)N[C@@H](CCC(N)=O)C(=O)N[C@H](C(N)=O)C(C)C)[C@@H](C)CC)[C@@H](C)CC)[C@@H](C)CC)C(C)C)C(C)C) [SEQ ID NO: 129]
